In patent publication US20160271292A1 (GEORGIA TECH RESEARCH, published 2016):

Columns and labels:
[1] = target: fibrin (polymerized from purified human fibrinogen with thrombin) (human) (UniProt P02671); experiment: SPR, sdFv flowed over thin fibrin layer, Langmuir 1:1 fit
[2] = target: T1, BSA (UniProt P02769 25-607); experiment: SPR, scFv/sdFv flowed over a BSA surface
T1 construct: Control surface in SPR; also called BSA surface
T1 sequence (P02769 25-607 limits assumed): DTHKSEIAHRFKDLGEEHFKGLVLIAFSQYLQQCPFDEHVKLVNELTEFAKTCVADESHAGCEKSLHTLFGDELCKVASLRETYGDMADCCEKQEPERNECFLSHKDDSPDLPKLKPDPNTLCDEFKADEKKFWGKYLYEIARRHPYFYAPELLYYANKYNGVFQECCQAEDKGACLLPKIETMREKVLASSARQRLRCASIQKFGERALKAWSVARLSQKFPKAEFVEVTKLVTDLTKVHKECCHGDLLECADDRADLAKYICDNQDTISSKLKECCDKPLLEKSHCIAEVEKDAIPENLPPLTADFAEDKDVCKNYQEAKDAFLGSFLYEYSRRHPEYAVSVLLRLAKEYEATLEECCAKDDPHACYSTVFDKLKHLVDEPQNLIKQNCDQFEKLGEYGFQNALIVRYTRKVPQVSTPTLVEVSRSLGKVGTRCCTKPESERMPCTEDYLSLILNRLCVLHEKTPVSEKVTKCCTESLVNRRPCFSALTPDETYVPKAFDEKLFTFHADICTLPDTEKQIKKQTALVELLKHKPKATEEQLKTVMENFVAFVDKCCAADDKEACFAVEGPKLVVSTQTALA

B1: H6 fibrin-specific single domain variable fragment antibody (sdFv) (VHH)
VHH: QVQLLESGGGLVQPGGSLRLSCAASGDRFTHNDMGWVRQAPGKGLEWVSTIPTTDGSTYYADSVKGRFTISRDNSKSTLYLQMNSLRAEDTAVYYCATGYMWKAPAYVKYWGQGTLVTVSS
notes: Human-derived single domain antibody with only the VH of human IgG, from a phagemid library; Produced as soluble sdFv in E. coli HB2151 and purified on protein A; also called clone H6; nanobody
[1]
  Kd: 199 nM
[2]
  binding result: no binding (tested: not printed)
